Changes are numbered by the printed parent chain. Values belong to the binder of their own block, whether it stands above or below them.
What was measured:
[1] = molecular target: T1, recombinant human TNFα (human, UniProt P01375 77-233); assay: cell-based or functional assay
[2] = molecular target: T1, recombinant human TNFα; assay: inhibition of 125I-TNFα binding to plate-coated p55-sf2 by hybridoma supernatant
[3] = molecular target: T1, recombinant human TNFα; assay: competition: mAb in hybridoma supernatant preincubated with 5 ng/ml 125I-TNFα, mixture added to plate-coated p55-sf2, cpm bound counted; blocked ligand p55-sf2

- neutralizing TNFα bioactivity [1]: 4 fold (against TNV14)
- fold better at blocking TNF binding than TNV118 and TNV14 [2]: ~4 fold
- IC50 (read off the curve) [3]: ~4 ng/mL
B1: TNV148 (antibody, V domains shown)
VH: QVQLVESGGGVVQPGRSLRLSCAASGFIFSSYAMHWVRQAPGNGLEWVAFMSYDGSNKKYADSVKGRFTISRDNPKNTLYLQMNSLRAEDTAVYYCARDRGIAAGGNYYYYGMDVWGQGTTVTVSS
VL: EIVLTQSPATLSLSPGERATLSCRASQSVYSYLAWYQQKPGQAPRLLIYDASNRATGIPARFSGSGSGTDFTLTISSLEPEDFAVYYCQQRSNWPPFTFGPGTKVDIKR

- IC50 (read off the curve) [3]: ~4 ng/mL
B2: TNV15 (antibody, V domains shown)
VH: B1 VH with I28T, N43K, M51I, S52L, P75S, T78A, I102V, A103S
VL: EIVLTQSPATLSLSPGERATLSCRASQSVSSYLAWYQQKPGQAPRLLIYDASNRATGIPARFSGSGSGTDFTLTISSLEPEDFAVYYCQQRSNWPPFTFGPGTKVDIK

- neutralizing TNFα bioactivity [1]: 4 fold (against TNV14)
- IC50 (read off the curve) [3]: ~4 ng/mL
B3: TNV196 (antibody, V domains shown)
VH: B1 VH with I28T, N43K, M51I, Y60S, I70V, P75S, Y80F, Y94F, A103G
VL: B2 VL with S30Y
